Test [1] has as its target Citrobacter sp. RHBSTW-00271 BubCD (JAB/JAMM family peptidase-E1 fusion), wild type (Citrobacter sp. RHBSTW-00271). The test is described as follows: crystal structure.
The target in test [2] is Citrobacter sp. RHBSTW-00271 BubCD D104A peptidase domain mutant (Citrobacter sp. RHBSTW-00271). The test is described as follows: crystal structure.

As to “Citrobacter sp. RHBSTW-00271 BubCD (JAB/JAMM family peptidase-E1 fusion), wild type (enzyme)”, the stoichiometry N in test [1] came out at 2.

Turning to “Citrobacter sp. RHBSTW-00271 BubCD D104A peptidase domain mutant (enzyme)”, the stoichiometry N in test [2] stood at 2.

By stoichiometry N is commonly meant a count of units in the complex or per binding partner.
